# Experimental data taken from PMC5472792, “Bub1 positions Mad1 close to KNL1 MELT repeats to promote checkpoint signalling” (Nature Communications, 2017).
# B1: Mps1: purified kinase (Life Technologies) (protein, UniProt P33981 1-857, looked up)
# Dual specificity protein …: MESEDLSGRELTIDSIMNKVRDIKNKFKNEDLTDELSLNKISADTTDNSGTVNQIMMMANNPEDWLSLLLKLEKNSVPLSDALLNKLIGRYSQAIEALPPDKYGQNESFARIQVRFAELKAIQEPDDARDYFQMARANCKKFAFVHISFAQFELSQGNVKKSKQLLQKAVERGAVPLEMLEIALRNLNLQKKQLLSEEEKKNLSASTVLTAQESFSGSLGHLQNRNNSCDSRGQTTKARFLYGENMPPQDAEIGYRNSLRQTNKTKQSCPFGRVPVNLLNSPDCDVKTDDSVVPCFMKRQTSRSECRDLVVPGSKPSGNDSCELRNLKSVQNSHFKEPLVSDEKSSELIITDSITLKNKTESSLLAKLEETKEYQEPEVPESNQKQWQSKRKSECINQNPAASSNHWQIPELARKVNTEQKHTTFEQPVFSVSKQSPPISTSKWFDPKSICKTPSSNTLDDYMSCFRTPVVKNDFPPACQLSTPYGQPACFQQQQHQILATPLQNLQVLASSSANECISVKGRIYSILKQIGSGGSSKVFQVLNEKKQIYAIKYVNLEEADNQTLDSYRNEIAYLNKLQQHSDKIIRLYDYEITDQYIYMVMECGNIDLNSWLKKKKSIDPWERKSYWKNMLEAVHTIHQHGIVHSDLKPANFLIVDGMLKLIDFGIANQMQPDTTSVVKDSQVGTVNYMPPEAIKDMSSSRENGKSKSKISPKSDVWSLGCILYYMTYGKTPFQQIINQISKLHAIIDPNHEIEFPDIPEKDLQDVLKCCLKRDPKQRISIPELLAHPYVQIQTHPVNQMAKGTTEEMKYVLGQLVGLNSPNSILKAAKTLYEHYSGGESHNSSSSKTFEKKRGKK
# B2: Mad1-BirA: promiscuous biotin ligase BirA fused to the C terminus of Mad1 (protein)
# chain: MEDLGENTMVLSTLRSLNNFISQRVEGGSGLDISTSAPGSLQMQYQQSMQLEERAEQIRSKSHLIQVEREKMQMELSHKRARVELERAASTSARNYEREVDRNQELLTRIRQLQEREAGAEEKMQEQLERNRQCQQNLDAASKRLREKEDSLAQAGETINALKGRISELQWSVMDQEMRVKRLESEKQELQEQLDLQHKKCQEANQKIQELQASQEARADHEQQIKDLEQKLSLQEQDAAIVKNMKSELVRLPRLERELKQLREESAHLREMRETNGLLQEELEGLQRKLGRQEKMQETLVGLELENERLLAKLQSWERLDQTMGLSIRTPEDLSRFVVELQQRELALKDKNSAVTSSARGLEKARQQLQEELRQVSGQLLEERKKRETHEALARRLQKRVLLLTKERDGMRAILGSYDSELTPAEYSPQLTRRMREAEDMVQKVHSHSAEMEAQLSQALEELGGQKQRADMLEMELKMLKSQSSSAEQSFLFSREEADTLRLKVEELEGERSRLEEEKRMLEAQLERRALQGDYDQSRTKVLHMSLNPTSVARQRLREDHSQLQAECERLRGLLRAMERGGTVPADLEAAAASLPSSKEVAELKKQVESAELKNQRLKEVFQTKIQEFRKACYTLTGYQIDITTENQYRLTSLYAEHPGDCLIFKATSPSGSKMQLLETEFSHTVGELIEVHLRRQDSIPAFLSSLTLELFSRQTVA
# modifications: left off: BirA, C-terminal, kept
# B3: MAD1 EFR/AAA: Mad1-BirA with Glu710, Phe712 and Arg714 mutated to Ala (protein)
# chain: MEDLGENTMVLSTLRSLNNFISQRVEGGSGLDISTSAPGSLQMQYQQSMQLEERAEQIRSKSHLIQVEREKMQMELSHKRARVELERAASTSARNYEREVDRNQELLTRIRQLQEREAGAEEKMQEQLERNRQCQQNLDAASKRLREKEDSLAQAGETINALKGRISELQWSVMDQEMRVKRLESEKQELQEQLDLQHKKCQEANQKIQELQASQEARADHEQQIKDLEQKLSLQEQDAAIVKNMKSELVRLPRLERELKQLREESAHLREMRETNGLLQEELEGLQRKLGRQEKMQETLVGLELENERLLAKLQSWERLDQTMGLSIRTPEDLSRFVVELQQRELALKDKNSAVTSSARGLEKARQQLQEELRQVSGQLLEERKKRETHEALARRLQKRVLLLTKERDGMRAILGSYDSELTPAEYSPQLTRRMREAEDMVQKVHSHSAEMEAQLSQALEELGGQKQRADMLEMELKMLKSQSSSAEQSFLFSREEADTLRLKVEELEGERSRLEEEKRMLEAQLERRALQGDYDQSRTKVLHMSLNPTSVARQRLREDHSQLQAECERLRGLLRAMERGGTVPADLEAAAASLPSSKEVAELKKQVESAELKNQRLKEVFQTKIQEFRKACYTLTGYQIDITTENQYRLTSLYAEHPGDCLIFKATSPSGSKMQLLETEFSHTVGELIEVHLRRQDSIPAFLSSLTLALASAQTVA
# modifications: left off: BirA, C-terminal, kept
# notes: Mad1-BirA with Glu710, Phe712 and Arg714 mutated to Ala
# Tests used:
# GST-Bub1 425–500 = assay: In vitro phosphorylation of GST-Bub1, mass spectrometry; type: biochemical, human
# Method: To identify mitotic kinases able to phosphorylate Bub1 on Ser459 and Thr461 we performed in vitro phosphorylation assays with candidate kinases.
# A similar set-up was used for analysing the phosphorylated GST-Bub1 except that an EASY-nLC 1200 UHPLC system connected to an Orbitrap Q-Exactive HF was used and the acetonitrile gradient was run for 77 min. The samples were analysed using a ‘fast' acquisition mode with a normalized collision energy (NCE) of 25 and raw data analysed with MaxQuant software suit version 1.5.7.4.
# GST- Bub1 (425–500) was expressed in BL21(DE3) cells at 18 °C overnight with 0.5 mM IPTG in the medium. The bacteria were lysed in 50 mM Tris-HCl pH 7.4, 300 mM NaCl, 10% glycerol, 5 mM β-mercaptoethanol, 1 mM PMSF, plus Complete-EDTA free protease inhibitors (Roche) using a high pressure homogenizer. Lysates were cleared by centrifugation and incubated with pre-equilibrated Glutathione-Fast Flow (GE Healthcare) beads for 2 h at 4 °C and eluted with GST-elution buffer at room temperature (50 mM Tris pH 8.8, 300 mM NaCl, 10% glycerol, 5 mM β-mercaptoethanol, 20 mM reduced glutathione). Elutions were pooled and run on Superdex 200 column (GE Healthcare) in PBS with 8.7% glycerol and 5 mM mercaptoethanol. Peak fractions were aliquoted and stored at −80 °C.
# 500 μM ATP and 125 nM Calyculin A (Cell Signaling) were added and the reactions were incubated at 30 °C for 1 h. Controls were incubated in kinase buffer and Calyculin A only. 6 μg of phosphorylated protein was resolved on NuPAGE Novex 4–12% Bis-Tris protein gels, which were fixed and stained by Colloidal Blue Staining (Thermo Scientific). The band corresponding to GST-Bub1 was cut out and analysed by mass spectrometry.
# Bub1 and KNL1 = assay: BioID proximity biotinylation; type: cell-based, human
# Excerpt: We speculated that CD1 might engage in a protein-protein interaction that is critical for checkpoint signalling. Mad1 appeared to be the only core component of the checkpoint for which we could see an effect of removing the CD1 on its kinetochore levels (Supplementary Fig. 1 for Cdc20 and ref. [33] for BubR1, Mad1). However, an interaction between human Mad1 and Bub1 cannot be detected in immunoprecipitation experiments. To determine whether there was an interaction between human Mad1 and Bub1, we first developed an assay for looking at transient and/or weak Mad1 interactions in vivo. […] The purification and detection of biotinylated proteins were highly robust and we detected multiple Mad1 peptides upon addition of biotin, as expected (Supplementary Fig. 5C). Using a quantitative mass spectrometry SILAC approach allowed us to compare the proximity of proteins to the N terminus versus the C terminus of Mad1. […]
# Figure 3 Bub1 directly interacts with Mad1. (a) Nocodazole arrested HeLa cells stably expressing the indicated Mad1-BirA or BirA-Mad1 fusion protein at near endogenous levels were analyzed 16 h after induction with doxycyclin with or without exposure to 25 μM biotin. […] Bound Bub1 protein was detected by blotting for FLAG. (e) Quantification of three independent experiments as in d with WT binding set to 1. […]
# [1] = GST-Bub1 425-500, 30 °C for 1 h, 500 μM ATP, LC-MS, kinase-free control 0
molecule,measurement,setting,value
B1,intensity of phospho-peptide 456-VQPS(Phos)PTVHTK (pS459),GST-Bub1 425–500; [1],0
same,intensity of phospho-peptide 456-VQPSPT(Phos)VHTK (pT461),GST-Bub1 425–500; [1],"7,84 E+08"
same,phosphorylation of GST-Bub1 425–500 (in words),"GST-Bub1 425–500; Ser459 and Thr461, mass spectrometry",phosphorylation of Thr461 but no phosphorylation on Ser459
B2,"biotinylation of Bub1, BubR1 and Cdc20 (proximity), Mad1-BirA vs BirA-Mad1","Bub1 and KNL1; SILAC mass spectrometry, single experiment, and western blot",more efficiently labelled with biotin
B3,biotinylation of Bub1 and KNL1,"Bub1 and KNL1; nocodazole arrested HeLa, 25 μM biotin, western blot, representative of two independent experiments",did not affect the biotinylation of Bub1 and KNL1
